The subject of data set [1] is HeLa Kyoto. In words: melting temperature (median over replicates), in situ; higher = more thermally stable.
Data set [2] concerns HeLa Kyoto. As to the kind of experiment: solubility in G1/S (NP-40 vs SDS abundance) (log2 ratio); higher = more soluble. The settings on record: cell cycle stage: G1/S.
Data set [3] deals with HeLa Kyoto. As to the kind of experiment: solubility change mitosis vs G1/S (difference of NP-40 vs SDS log2 ratios) (log2 ratio difference); higher = more soluble in mitosis.
Data set [4] deals with HeLa Kyoto. As to the kind of experiment: thermal stability score vs G1/S (z-score of summed log2 fold changes over temperatures); higher = more thermally stable than in G1/S.
[5] abbreviates: cell cycle stage: early G1 (4.5 h after nocodazole release).
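Wherever melting temperature (median over replicates), in situ is given: HeLa Kyoto cells synchronized by double thymidine or nocodazole block, proteins quantified by TMT10plex mass spectrometry, three independent biological replicates.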
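Wherever solubility change mitosis vs G1/S (difference of NP-40 vs SDS log2 ratios) is given: synchronized HeLa Kyoto cells (double thymidine block for G1/S, nocodazole release for mitosis), protein amounts in NP-40 versus SDS lysates quantified by mass spectrometry, three biological replicates.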
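Wherever solubility in G1/S (NP-40 vs SDS abundance) is given: HeLa Kyoto cells arrested at G1/S by double thymidine block, proteins quantified by TMT10plex mass spectrometry in mild NP-40 versus SDS extracts, three biological replicates.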
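Wherever thermal stability score vs G1/S (z-score of summed log2 fold changes over temperatures) is given: synchronized HeLa Kyoto cells, proteins quantified by TMT10plex mass spectrometry, three biological replicates, mitosis taken 0.5 h after nocodazole release, G1/S directly after double thymidine block.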

Consider “MNQKLLKLENLLRFHTIYRQLHSLCQRRALRQWRHGFSSAYPVWTAQLCAWPWPTDVLTGAALSQYRLLVTKKEEGPWKSQLSSTKSKKVVEVWIGMTIEELARAMEKNTDYVYEALLNTDIDIDSLEADSHLDEVWIKEVITKAGMKLKWSKLKQDKVRKNKDAVRRPQADPALLTPRSPVVTIMGHVDHGKTTLLDKFRKTQVAAVETGGITQHIGAFLVSLPSGEKITFLDTPGHAAFSAMRARGAQVTDIVVLVVAADDGVMKQTVESIQHAKDAQVPIILAVNKCDKAEADPEKVKKELLAYDVVCEDYGGDVQAVPVSALTGDNLMALAEATVALAEMLELKADPNGPVEGTVIESFTDKGRGLVTTAIIQRGTLRKGSVLVAGKCWAKVRLMFDENGKTIDEAYPSMPVGITGWRDLPSAGEEILEVESEPRAREVVDWRKYEQEQEKGQEDLKIIEEKRKEHKEAHQKAREKYGHLLWKKRSILRFLERKEQIPLKPKEKRERDSNVLSVIIKGDVDGSVEAILNIIDTYDASHECELELVHFGVGDVSANDVNLAETFDGVIYGFNVNAGNVIQQSAAKKGVKIKLHKIIYRLVEDLQEELSSRLPCAVEEHPVGEASILATFSVTEGKKKVPVAGCRVQKGQLEKQKKFKLTRNGHVIWKGSLTSLKHHKDDISIVKTGMDCGLSLDEDNMEFQVGDRIVCYEEKQIQAKTSWDPGF [MTIF2]”, for which the melting temperature was determined as 49.7 °C in data set [1] (cell cycle stage: G1/S) and 49.1 °C in data set [1] (cell cycle stage: mitosis). The “solubility in G1/S (log2)” value in data set [2] was -0.146. Besides, the “solubility change mitosis (log2)” value in data set [3] was -0.0734. Besides, the thermal stability score in data set [4] (setting [5]) was -0.325; in data set [4] (cell cycle stage: mitosis), 0.122.

On to “MNRSHRHGAGSGCLGTMEVKSKFGAEFRRFSLERSKPGKFEEFYGLLQHVHKIPNVDVLVGYADIHGDLLPINNDDNYHKAVSTANPLLRIFIQKKEEADYSAFGTDTLIKKKNVLTNVLRPDNHRKKPHIVISMPQDFRPVSSIIDVDILPETHRRVRLYKYGTEKPLGFYIRDGSSVRVTPHGLEKVPGIFISRLVPGGLAQSTGLLAVNDEVLEVNGIEVSGKSLDQVTDMMIANSRNLIITVRPANQRNNVVRNSRTSGSSGQSTDNSLLGYPQQIEPSFEPEDEDSEEDDIIIEDNGVPQQIPKAVPNTESLESLTQIELSFESGQNGFIPSNEVSLAAIASSSNTEFETHAPDQKLLEEDGTIITL [PARD6B]”, for which the melting temperature in data set [1] (cell cycle stage: G1/S) came out at 51 °C. Also, the “solubility in G1/S (log2)” value in data set [2] is -0.226. For the same substance, in data set [3], the “solubility change mitosis (log2)” value was found to be 0.0857. In addition, the thermal stability score in data set [4] (setting [5]) was -0.366; in data set [4] (cell cycle stage: mitosis) it was -0.685.

Take “MNVNQSVPPVPPFGQPQPIYPGYHQSSYGGQSGSTAPAIPYGAYNGPVPGYQQTPPQGMSRAPPSSGAPPASTAQAPCGQAAYGQFGQGDVQNGPSSTVQMQRLPGSQPFGSPLAPVGNQPPVLQPYGPPPTSAQVATQLSGMQISGAVAPAPPSSGLGFGPPTSLASASGSFPNSGLYGSYPQGQAPPLSQAQGHPGIQTPQRSAPSQASSFTPPASGGPRLPSMTGPLLPGQSFGGPSVSQPNHVSSPPQALPPGTQMTGPLGPLPPMHSPQQPGYQPQQNGSFGPARGPQSNYGGPYPAAPTFGSQPGPPQPLPPKRLDPDAIPSPIQVIEDDRNNRGTEPFVTGVRGQVPPLVTTNFLVKDQGNASPRYIRCTSYNIPCTSDMAKQAQVPLAAVIKPLARLPPEEASPYVVDHGESGPLRCNRCKAYMCPFMQFIEGGRRFQCCFCSCINDVPPQYFQHLDHTGKRVDAYDRPELSLGSYEFLATVDYCKNNKFPSPPAFIFMIDVSYNAIRTGLVRLLCEELKSLLDFLPREGGAEESAIRVGFVTYNKVLHFYNVKSSLAQPQMMVVSDVADMFVPLLDGFLVNVNESRAVITSLLDQIPEMFADTRETETVFVPVIQAGMEALKAAECAGKLFLFHTSLPIAEAPGKLKNRDDRKLINTDKEKTLFQPQTGAYQTLAKECVAQGCCVDLFLFPNQYVDVATLSVVPQLTGGSVYKYASFQVENDQERFLSDLRRDVQKVVGFDAVMRVRTSTGIRAVDFFGAFYMSNTTDVELAGLDGDKTVTVEFKHDDRLNEESGALLQCALLYTSCAGQRRLRIHNLALNCCTQLADLYRNCETDTLINYMAKFAYRGVLNSPVKAVRDTLITQCAQILACYRKNCASPSSAGQLILPECMKLLPVYLNCVLKSDVLQPGAEVTTDDRAYVRQLVTSMDVTETNVFFYPRLLPLTKSPVESTTEPPAVRASEERLSNGDIYLLENGLNLFLWVGASVQQGVVQSLFSVSSFSQITSGLSVLPVLDNPLSKKVRGLIDSLRAQRSRYMKLTVVKQEDKMEMLFKHFLVEDKSLSGGASYVDFLCHMHKEIRQLLS [SEC24C]”: the melting temperature in data set [1] (cell cycle stage: G1/S) was 50.6 °C; in data set [1] (cell cycle stage: mitosis), 50.3 °C. Besides, the “solubility in G1/S (log2)” value in data set [2] worked out at 0.0263. The “solubility change mitosis (log2)” value in data set [3] was -0.121. Besides, the thermal stability score amounted to 1.19 in data set [4] (setting [5]) and 1.53 in data set [4] (cell cycle stage: mitosis).

Turning to “MNVVFAVKQYISKMIEDSGPGMKVLLMDKETTGIVSMVYTQSEILQKEVYLFERIDSQNREIMKHLKAICFLRPTKENVDYIIQELRRPKYTIYFIYFSNVISKSDVKSLAEADEQEVVAEVQEFYGDYIAVNPHLFSLNILGCCQGRNWDPAQLSRTTQGLTALLLSLKKCPMIRYQLSSEAAKRLAECVKQVITKEYELFEFRRTEVPPLLLILDRCDDAITPLLNQWTYQAMVHELLGINNNRIDLSRVPGISKDLREVVLSAENDEFYANNMYLNFAEIGSNIKNLMEDFQKKKPKEQQKLESIADMKAFVENYPQFKKMSGTVSKHVTVVGELSRLVSERNLLEVSEVEQELACQNDHSSALQNIKRLLQNPKVTEFDAARLVMLYALHYERHSSNSLPGLMMDLRNKGVSEKYRKLVSAVVEYGGKRVRGSDLFSPKDAVAITKQFLKGLKGVENVYTQHQPFLHETLDHLIKGRLKENLYPYLGPSTLRDRPQDIIVFVIGGATYEEALTVYNLNRTTPGVRIVLGGTTVHNTKSFLEEVLASGLHSRSKESSQVTSRSASRR [VPS45]”, the melting temperature in data set [1] (cell cycle stage: G1/S) worked out at 49.6 °C; in data set [1] (cell cycle stage: mitosis) it was 49.9 °C. The “solubility in G1/S (log2)” value in data set [2] is 0.0246. Besides, the “solubility change mitosis (log2)” value in data set [3] was -0.166. Moreover, the thermal stability score in data set [4] (setting [5]) is 0.581; in data set [4] (cell cycle stage: mitosis), 1.21.

Take “MNWELLLWLLVLCALLLLLVQLLRFLRADGDLTLLWAEWQGRRPEWELTDMVVWVTGASSGIGEELAYQLSKLGVSLVLSARRVHELERVKRRCLENGNLKEKDILVLPLDLTDTGSHEAATKAVLQEFGRIDILVNNGGMSQRSLCMDTSLDVYRKLIELNYLGTVSLTKCVLPHMIERKQGKIVTVNSILGIISVPLSIGYCASKHALRGFFNGLRTELATYPGIIVSNICPGPVQSNIVENSLAGEVTKTIGNNGDQSHKMTTSRCVRLMLISMANDLKEVWISEQPFLLVTYLWQYMPTWAWWITNKMGKKRIENFKSGVDADSSYFKIFKTKHD [DHRS7]”: the melting temperature in data set [1] (cell cycle stage: G1/S) and in data set [1] (cell cycle stage: mitosis) was 56.6 °C throughout. Also, the “solubility in G1/S (log2)” value in data set [2] was -0.297. In addition, the “solubility change mitosis (log2)” value in data set [3] was -0.0912. For the same substance, the thermal stability score was -1.54 in data set [4] (setting [5]) and -1.34 in data set [4] (cell cycle stage: mitosis).

As to “MNYDSQQPPLPPLPYAGCRRASGFPALGRGGTVPVGVWGGAGQGREGRSWGEGPRGPGLGRRDLSSADPAVLGATMESRCYGCAVKFTLFKKEYGCKNCGRAFCSGCLSFSAAVPRTGNTQQKVCKQCHEVLTRGSSANASKWSPPQNYKKRVAALEAKQKPSTSQSQGLTRQDQMIAERLARLRQENKPKLVPSQAEIEARLAALKDERQGSIPSTQEMEARLAALQGRVLPSQTPQPAHHTPDTRTQAQQTQDLLTQLAAEVAIDESWKGGGPAASLQNDLNQGGPGSTNSKRQANWSLEEEKSRLLAEAALELREENTRQERILALAKRLAMLRGQDPERVTLQDYRLPDSDDDEDEETAIQRVLQQLTEEASLDEASGFNIPAEQASRPWTQPRGAEPEAQDVDPRPEAEEEELPWCCICNEDATLRCAGCDGDLFCARCFREGHDAFELKEHQTSAYSPPRAGQEH [ZFYVE19]”, the melting temperature in data set [1] (cell cycle stage: G1/S) turned out to be 54.2 °C; in data set [1] (cell cycle stage: mitosis) it was 52.9 °C. Besides, the “solubility in G1/S (log2)” value in data set [2] worked out at 0.428. In data set [3], the “solubility change mitosis (log2)” value was -0.237. The thermal stability score is -2.39 in data set [4] (setting [5]) and -1.86 in data set [4] (cell cycle stage: mitosis).

Turning to MON2, the melting temperature in data set [1] (cell cycle stage: G1/S) amounted to 49.8 °C; in data set [1] (cell cycle stage: mitosis) it was 50.1 °C. For the same substance, in data set [2], the “solubility in G1/S (log2)” value was -0.103. Further, the “solubility change mitosis (log2)” value in data set [3] is -0.108. For the same substance, the thermal stability score in data set [4] (setting [5]) is -0.177; in data set [4] (cell cycle stage: mitosis), 0.256.

Source of the values: the supplement of paper PMC5998384.
